Experimental data taken from US20240035010, “COMPOSITIONS COMPRISING A VARIANT POLYPEPTIDE AND USES THEREOF” (Arbor Biotechnologies, Inc., published 2024).

Columns and labels:
[1] = target: T1, variant nuclease L38G combination (P14R, D32R, I61R, E311R, L38G); assay: cell_activity; PAM 5'-TTTA-3'; conditions: tags: pcDNA3.1 expression
T1 chain: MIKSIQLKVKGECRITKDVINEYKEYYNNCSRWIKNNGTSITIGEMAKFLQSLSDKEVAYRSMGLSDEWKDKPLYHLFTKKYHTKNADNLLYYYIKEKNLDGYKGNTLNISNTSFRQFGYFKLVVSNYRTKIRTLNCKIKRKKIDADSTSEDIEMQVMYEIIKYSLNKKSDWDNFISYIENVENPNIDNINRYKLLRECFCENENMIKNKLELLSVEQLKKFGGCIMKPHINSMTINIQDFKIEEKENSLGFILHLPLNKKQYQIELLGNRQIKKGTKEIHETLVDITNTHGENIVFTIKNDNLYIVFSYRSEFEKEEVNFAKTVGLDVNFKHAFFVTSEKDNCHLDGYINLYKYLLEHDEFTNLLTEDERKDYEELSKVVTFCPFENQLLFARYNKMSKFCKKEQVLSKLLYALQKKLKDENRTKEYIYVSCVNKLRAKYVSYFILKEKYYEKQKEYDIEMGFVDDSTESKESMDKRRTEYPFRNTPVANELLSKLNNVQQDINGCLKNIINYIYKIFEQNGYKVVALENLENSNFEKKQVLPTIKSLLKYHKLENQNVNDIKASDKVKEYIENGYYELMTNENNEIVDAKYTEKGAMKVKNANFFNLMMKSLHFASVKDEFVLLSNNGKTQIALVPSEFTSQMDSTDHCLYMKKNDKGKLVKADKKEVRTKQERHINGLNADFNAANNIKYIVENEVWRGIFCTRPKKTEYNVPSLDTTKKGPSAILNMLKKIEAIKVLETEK
How it was run: (§1)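 HEK293T cells were lipofected with nuclease plasmid (pcDNA3.1 backbone) plus RNA guide plasmid, with guide omitted in negative controls. After ~72 h cells were lysed in QuickExtract and % indels were derived from NGS reads, averaged over two bioreplicates and two technical replicates.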

[2] = target: T2, variant nuclease D590G combination (P14R, D32R, I61R, E311R, D590G); assay: cell_activity; PAM 5'-TTTA-3'; conditions: tags: pcDNA3.1 expression
T2 chain: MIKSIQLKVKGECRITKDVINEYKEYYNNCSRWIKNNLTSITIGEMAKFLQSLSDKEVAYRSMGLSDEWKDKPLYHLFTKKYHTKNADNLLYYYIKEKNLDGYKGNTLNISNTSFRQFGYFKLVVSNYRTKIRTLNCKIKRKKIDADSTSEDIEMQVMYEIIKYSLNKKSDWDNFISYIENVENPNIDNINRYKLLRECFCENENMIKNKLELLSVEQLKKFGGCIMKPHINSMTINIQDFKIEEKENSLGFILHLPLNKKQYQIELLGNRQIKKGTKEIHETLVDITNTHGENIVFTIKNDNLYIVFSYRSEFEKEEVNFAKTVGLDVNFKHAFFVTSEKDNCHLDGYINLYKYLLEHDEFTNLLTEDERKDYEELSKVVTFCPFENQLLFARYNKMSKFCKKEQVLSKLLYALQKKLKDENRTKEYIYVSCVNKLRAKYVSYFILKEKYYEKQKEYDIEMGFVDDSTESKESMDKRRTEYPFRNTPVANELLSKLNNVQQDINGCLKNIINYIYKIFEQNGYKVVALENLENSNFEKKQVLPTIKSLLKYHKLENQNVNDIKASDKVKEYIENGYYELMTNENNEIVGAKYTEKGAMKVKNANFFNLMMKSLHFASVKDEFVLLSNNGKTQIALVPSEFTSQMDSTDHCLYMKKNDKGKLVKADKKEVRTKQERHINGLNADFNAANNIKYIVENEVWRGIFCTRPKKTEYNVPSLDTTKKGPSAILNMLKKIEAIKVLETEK
How it was run: as §1

B1: VEGFA crRNA ; VEGFA target (ssRNA ; dsDNA)
RNA: CUUGUUGUAUAUGUCCUUUUAUAGGUAUUAAACAACUCCAGACCACCAAUGGGCAC
DNA 1: TCCAGACCACCAATGGGCAC
DNA 2: GTGCCCATTGGTGGTCTGGA
B1 was tested, and the indel activity [1] was 0.22 fold of WT and the indel activity [2] was 2.68 fold of WT.
